According to patent US20230129812A1, “COMPOSITIONS AND METHODS FOR TREATING PULMONARY HYPERTENSION” (Acceleron Pharma Inc., priority 2020, published 2023):

Legend:
[1] = biological target: GDF8, O14793; test: SPR (Biacore); receptor-Fc captured by anti-Fc antibody, ligand injected; details: remark: other sources report otherwise
[2] = biological target: GDF8, O14793; test: SPR (Biacore); receptor-Fc captured by anti-Fc antibody, ligand injected; † Very low signal; details: remark: other sources report otherwise

Sequence of GDF8, O14793 (O14793 267-375 limits assumed): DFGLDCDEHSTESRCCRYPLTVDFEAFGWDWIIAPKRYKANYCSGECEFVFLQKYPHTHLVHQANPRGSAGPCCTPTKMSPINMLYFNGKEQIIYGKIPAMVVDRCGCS

B1: ALK4-Fc homodimer, P36896 24-126 (Fc fusion, not shown: a dimerising Fc or GST)
chain: SGPRGVQALLCACTSCLQANYTCETDGACMVSIFNLDGMEHHVRTCIPKVELVPAGKPFYCLSSEDLRNTHCCYTDYCNRIDLRVPSGHLKEPEHPSMWGPVE
koff [1]: 0.0019 s⁻¹
kon [1]: 130000 M⁻¹ s⁻¹
Kd [2]: 15 nM
